Experimental data from publication PMC9684555, “Structure- and computational-aided engineering of an oxidase to produce isoeugenol from a lignin-derived compound” (Nature Communications, 2022).

Biological target: the molecule itself
Experiment: crystal structure; sitting-drop vapor diffusion at 20 °C; crystals soaked 1 h with 5 mM 4-n-propylguaiacol; 2.9 Å; eight subunits in the asymmetric unit

B1: S394V-EUGO5X mutant of eugenol oxidase (EUGO) from Rhodococcus jostii RHA1 (enzyme)
chain: MTRTLPPGVSDERFDAALQRFRDVVGDKWVLSTADELEAFRDPYPVGAAEANLPSAVVSPESTEQVQDIVRIANEYGIPLHPVSTGKNNGYGGAAPRLSGSVIVKTGERMNRILEVNEKYGYALLEPGVTYFDLYEYLQSHDSGLMLDCPDLGWGSVVGNTLDRGVGYTPYGDHFMWQTGLEVVLPQGEVMRTGMGALPGSDAWQLFPYGFGPFPDGMFTQSNLGIVTKMGIALMQRPPASQSFLITFDKEEDLEQIVDIMLPLRINMAPLQNVPVLRNIFMDAAAVSKRTEWFDGDGPMPAEAIERMKKDLDLGFWNFYGTLYGPPPLIEMYYGMIKEAFGKIPGARFFTHEERDDRGGHVLQDRHKINNGIPSLDELQLLDWVPNGGHIGFVPVSAPDGREAMKQFEMVRNRANEYNKDYMAQFIIGLREMYHVCLFIYDTADPEAREEILQMTKVLVREAAEAGYGEYRTHNALMDDVMATFNWGDGALLKFHEKIKDALDPNGIIAPGKSGIWPQRFRGQNL
modifications: covalently bound FAD cofactor
notes: eugenol oxidase (EUGO), Rhodococcus jostii RHA1, UniProt Q0SBK1; EUGO5X = S81H, A423M, H434Y, I445D, S518P, with S394V added; Tag-less protein after SUMO protease; crystals were soaked with 4-n-propylguaiacol; also called sixfold mutant S394V-EUGO5X; source: E. coli, from pBAD-His-Sumo-S394V-EUGO5X, purified (HisTrap, SUMO protease, reverse nickel, Superdex 200)
  stoichiometry N: 2
